Assay [1] addresses BCMA (analyte of Table 4A). Description: SPR (Bio-Rad ProteOn XPR36), IgG amine-coupled, BCMA as analyte, kinetic titration; species of BCMA and temperature not stated for Table 4A. Here is the method:
(§1) All experiments were performed on a Bio-Rad Proteon XPR36 surface Plasmon resonance biosensor (Bio-Rad, Hercules, Calif.). […] The analysis temperature for the immobilization was 25° C. and the running buffer was HBS-T+(10 mM HEPES, 150 mM NaCl, 0.05% Tween-20, pH 7.4). Channels were activated in the analyte (horizontal) direction by injecting a mixture of 1 mM ECD and 0.25 mM NHS for 3 minutes at a flow rate of 30 μL/min. IgGs were immobilized on the activated spots by injecting them in the ligand (vertical) direction at 20 μg/mL in 10 mM Acetate pH 4.5 buffer for 1.5 minutes at […]. The activated surfaces were blocked by injecting 1M ethanolamine, pH 8.5 in the analyte direction for 3 minutes at 30 μL/min.
(§2) The analysis temperature for the BCMA binding analysis was 37° C. or 25° C. in a running buffer of HBS-T+, supplemented with 1 mg/mL BSA. A kinetic titration method was employed for the interaction analysis as described in Abdiche, et al. Human BCMA (huBCMA) or cynomolgus monkey BCMA (cyBCMA) analyte was injected in the analyte direction using a series of injections from low to high concentration. The concentrations used were 0.08 nM, 0.4 nM, 2 nM, 10 nM and 50 nM (a 5-membered series, with a 5-fold dilution factor and top concentration of 50 nM). The association time for a given analyte dilution was two minutes. Immediately after the 50 nM BCMA injection, dissociation was monitored for 2 hours.
(§3) The sensorgrams were double-referenced and fit to a 1:1 Langmuir with mass transport kinetic titration model in BIAevaluation Software version 4.1.1 (GE Lifesciences, Piscataway, N.J.).

Assay [2] addresses T1, Human BCMA (human, UniProt Q02223 1-54, limits assumed).
T1 construct: Soluble analyte in SPR; construct not described; also called huBCMA; B-cell maturation antigen
T1 sequence (looked up): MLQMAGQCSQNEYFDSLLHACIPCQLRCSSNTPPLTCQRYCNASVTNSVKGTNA
Put plainly: SPR, IgG immobilised, 25 C. Here is the method: as §1, §2, §3
A general note: SPR reads the build-up and loss of mass on a sensor chip optically.

Assay [3] has as its target T2, cynomolgus monkey BCMA (cynomolgus monkey, UniProt A0A2K5UD97 1-53).
T2 construct: Soluble analyte in SPR; construct not described; also called cyBCMA; Cyno BCMA
Description: SPR, IgG immobilised, 25 C. The procedure: as §1, §2, §3

Assay [4] deals with T1, Human BCMA. Put plainly: SPR, IgG immobilised, 37 C. The gist of the method:
(§4)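 IgGs were amine-coupled (EDC/NHS, 20 μg/mL in acetate pH 4.5) and BCMA, human or cynomolgus, was injected by kinetic titration at 0.08, 0.4, 2, 10 and 50 nM, 2 min each, in HBS-T+ pH 7.4 with 1 mg/mL BSA at 37° C or 25° C. Dissociation was followed for 2 hours.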

In assay [5] the target is T2, cynomolgus monkey BCMA. Description: SPR, IgG immobilised, 37 C. The gist of the method:
as §4

Assay [6] deals with T1, Human BCMA. Put plainly: SPR, IgG immobilised, 37 C; huBCMA @25° C.

Positions count from the first letter of the chain named.

T2 sequence (A0A2K5UD97 entry or part of it): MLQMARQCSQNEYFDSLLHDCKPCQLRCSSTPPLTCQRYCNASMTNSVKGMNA
Sequence of BCMA (analyte of Table 4A) (Q02223 whole entry, the tested form may be a part): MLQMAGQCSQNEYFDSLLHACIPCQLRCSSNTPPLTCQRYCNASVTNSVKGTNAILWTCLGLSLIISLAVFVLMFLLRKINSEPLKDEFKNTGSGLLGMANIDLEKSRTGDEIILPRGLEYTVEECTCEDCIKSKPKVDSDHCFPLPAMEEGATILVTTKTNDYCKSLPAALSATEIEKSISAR

B1: A02_Rd4_6nM_C01 (antibody, V domains shown)
VH: EVQLLESGGGLVQPGGSLRLSCAASGFTFSSYAMNWVRQAPGKGLEWVSAITASGGSTYYADSVKGRFTISRDNSKNTLYLQMNSLRAEDTAVYYCARYWPMSLWGQGTLVTVSS
VL: EIVLTQSPGTLSLSPGERATLSCRASQSVSAYYLAWYQQKPGQAPRLLMYDASIRATGIPDRFSGSGSGTDFTLTISRLEPEDFAVYYCQQYERWPLTFGQGTKVEIK
In the case of B1, in assay [1], the Kd (commonly a measure of binding affinity in units of concentration) was 0.024 nM; the koff (as a rule, the first-order rate constant of dissociation) worked out at 2.8e-05 s⁻¹; the kon – broadly, the rate constant with which the complex forms – stood at 1.2e+06 M⁻¹ s⁻¹; the t1/2 worked out at 411 min.

B2: COMBO_Rd4_0.6nM_C29 (antibody, V domains shown)
VH: B1 VH with A33P, N35S, T52G, A53G, T58L, Y59P, S103D, L104I
VL: B1 VL with A31S, Y32S, E93Q, R94S
notes: Tested as IgG
Regarding B2, in assay [1], binding was characterised by a dissociation constant (Kd) of 0.021 nM, the koff came out at 0.00014 s⁻¹, the kon came to 6.6e+06 M⁻¹ s⁻¹ and the t1/2 was determined as 83 min.

B3: A02_Rd4_6nM_C16 (antibody, V domains shown)
VH: B1 VH with T52S, A53D, S54F, S103D, L104I
VL: B1 VL with A31D, Y32L, E93Q, R94T
notes: Tested as IgG; also called P5AC16
In assay [1], B3 had a Kd of 0.059 nM, a koff of 6.2e-05 s⁻¹, a kon of 1.1e+06 M⁻¹ s⁻¹ and a t1/2 of 187 min.

B4: L3.PY/P6E01 (antibody, V domains shown)
VH: EVQLLESGGGLVQPGGSLRLSCAASGFTFGSYAMTWVRQAPGKGLEWVSAISGSGGNTFYADSVKGRFTISRDNSKNTLYLQMNSLRAEDTAVYYCARVSPIASGMDYWGQGTLVTVSS
VL: EIVLTQSPGTLSLSPGERATLSCRASQSVSSSYLAWYQQKPGQAPRLLIYGASSRATGIPDRFSGSGSGTDFTLTISRLEPEDFAVYYCQHYPYPPSFTFGQGTKVEIK
notes: IgG
For the molecule B4, in the assay with Human BCMA [2], the Kd was found to be 0.32 nM, the “T ½” value turned out to be 50.7 min, the koff is 0.000228 s⁻¹ and the kon turned out to be 712000 M⁻¹ s⁻¹. Moreover, in the assay with cynomolgus monkey BCMA [3], the affinity, expressed as Kd, was 3.4 nM; the “T ½” value came to 3.9 min; the koff came out at 0.00293 s⁻¹; the kon is 855000 M⁻¹ s⁻¹. In addition, in the assay with Human BCMA [4], the affinity, expressed as Kd, was 0.74 nM; the “T ½” value was 5.91 min; the koff worked out at 0.00196 s⁻¹; the kon worked out at 2.65e+06 M⁻¹ s⁻¹. In addition, in the assay with cynomolgus monkey BCMA [5], the Kd worked out at 5.96 nM, the “T ½” value came to 0.88 min, the koff was 0.0131 s⁻¹ and the kon came out at 2.2e+06 M⁻¹ s⁻¹.

B5: L3.PY/H3.TAQ (antibody, V domains shown)
VH: B4 VH with A97T, S104A, G105Q
VL: B4 VL
notes: Tested as IgG
For B5, in assay [1], the affinity, expressed as Kd, was 0.053 nM; the koff came out at 0.00014 s⁻¹; the kon was determined as 2.6e+06 M⁻¹ s⁻¹; the t1/2 came to 84 min.

B6: L1.LGF/L3.PY/H3.AP (antibody, V domains shown)
VH: B4 VH with S104A, G105P
VL: B4 VL with V29L, S30G, S32F
notes: IgG
For the molecule B6, in the assay with Human BCMA [2], the Kd was 2.12 nM, the “T ½” value was determined as 11.9 min, the koff turned out to be 0.000969 s⁻¹ and the kon was found to be 457000 M⁻¹ s⁻¹. Also, in the assay with cynomolgus monkey BCMA [3], the Kd worked out at 35.8 nM, the “T ½” value turned out to be 0.9 min, the koff turned out to be 0.013 s⁻¹ and the kon came to 364000 M⁻¹ s⁻¹.

B7: L1.LGF/L3.NY/H3.AL (antibody, V domains shown)
VH: B4 VH with S104A, G105L
VL: B4 VL with V29L, S30G, S32F, P93N
notes: IgG
Regarding B7, in the assay with Human BCMA [2], binding was characterised by a dissociation constant (Kd) of 1.27 nM, the “T ½” value was found to be 11.9 min, the koff came to 0.00097 s⁻¹ and the kon worked out at 763000 M⁻¹ s⁻¹. In the assay with cynomolgus monkey BCMA [3], the affinity, expressed as Kd, was 23.2 nM; the “T ½” value was 0.8 min; the koff stood at 0.0148 s⁻¹; the kon came to 635000 M⁻¹ s⁻¹.

B8: L3.NY/P6E01 (antibody, V domains shown)
VH: B4 VH
VL: B4 VL with P93N
notes: IgG
For B8, in the assay with Human BCMA [2], the Kd turned out to be 0.44 nM, the “T ½” value stood at 30.1 min, the koff amounted to 0.000384 s⁻¹ and the kon was found to be 876000 M⁻¹ s⁻¹. Further, in the assay with cynomolgus monkey BCMA [3], the Kd was found to be 2.8 nM, the “T ½” value worked out at 4 min, the koff came to 0.00287 s⁻¹ and the kon came out at 1.01e+06 M⁻¹ s⁻¹.

B9: L1.LGF/L3.NY/H3.AP (antibody, V domains shown)
VH: B4 VH with S104A, G105P
VL: B4 VL with V29L, S30G, S32F, P93N
notes: IgG
B9: in the assay with Human BCMA [2], binding was put at a Kd of 0.57 nM, the “T ½” value came to 21.7 min, the koff was determined as 0.000533 s⁻¹ and the on-rate constant (kon) was 936000 M⁻¹ s⁻¹. Further, in the assay with cynomolgus monkey BCMA [3], the Kd stood at 6.7 nM, the “T ½” value worked out at 2.1 min, the koff is 0.00557 s⁻¹ and the kon worked out at 830000 M⁻¹ s⁻¹.

B10: L1.LGF/L3.NY/H3.AQ (antibody, V domains shown)
VH: B4 VH with S104A, G105Q
VL: B4 VL with V29L, S30G, S32F, P93N
notes: IgG
On to B10, for which, in the assay with Human BCMA [2], binding was characterised by a dissociation constant (Kd) of 0.45 nM, the “T ½” value came out at 38.6 min, the koff worked out at 0.000299 s⁻¹ and the kon was 666000 M⁻¹ s⁻¹. Also, in the assay with cynomolgus monkey BCMA [3], the Kd came out at 2 nM, the “T ½” value is 7.8 min, the koff turned out to be 0.00148 s⁻¹ and the kon stood at 751000 M⁻¹ s⁻¹.

B11: L1.LGF/L3.PY/H3.AQ (antibody, V domains shown)
VH: B4 VH with S104A, G105Q
VL: B4 VL with V29L, S30G, S32F
notes: IgG
Regarding B11, in the assay with Human BCMA [2], the Kd was 0.95 nM, the “T ½” value was determined as 13 min, the koff was 0.000886 s⁻¹ and the kon turned out to be 931000 M⁻¹ s⁻¹. Besides, in the assay with cynomolgus monkey BCMA [3], binding was put at a Kd of 4.8 nM, the “T ½” value was found to be 2.4 min, the koff is 0.00477 s⁻¹ and the kon amounted to 1e+06 M⁻¹ s⁻¹.

B12: L1.LGF/L3.NY/P6E01 (antibody, V domains shown)
VH: B4 VH
VL: B4 VL with V29L, S30G, S32F, P93N
notes: IgG
Regarding B12, in the assay with Human BCMA [2], the Kd is 3.32 nM, the “T ½” value came to 2.63 min, the koff stood at 0.0044 s⁻¹ and the kon is 1.33e+06 M⁻¹ s⁻¹. Also, in the assay with cynomolgus monkey BCMA [3], the affinity, expressed as Kd, was 11.4 nM; the “T ½” value is 1.1 min; the koff is 0.0105 s⁻¹; the kon amounted to 920000 M⁻¹ s⁻¹.

B13: L3.KW/P6E01 (antibody, V domains shown)
VH: B4 VH
VL: B4 VL with Q90K, P93G, Y94W
notes: IgG
B13: in the assay with Human BCMA [2], the Kd amounted to 0.43 nM, the “T ½” value came out at 36.7 min, the koff stood at 0.000315 s⁻¹ and the kon stood at 740000 M⁻¹ s⁻¹. In the assay with cynomolgus monkey BCMA [3], the Kd is 3.4 nM, the “T ½” value is 4.5 min, the koff amounted to 0.00257 s⁻¹ and the kon turned out to be 763000 M⁻¹ s⁻¹.

B14: L3.PY/L1.PS/H2.QR (antibody, V domains shown)
VH: B4 VH with S63Q, V64R
VL: B4 VL with L34P, A35S
notes: IgG
Turning to B14, the koff with Human BCMA [6] was 0.103 s⁻¹. For the same molecule, in the assay with Human BCMA [4], the Kd came out at 25.9 nM, the “T ½” value is 0.11 min and the kon was 3.97e+06 M⁻¹ s⁻¹. For the same molecule, in the assay with cynomolgus monkey BCMA [5], the Kd came to 1.28 nM, the “T ½” value worked out at 17.2 min, the off-rate (koff) was 0.00067 s⁻¹ and the kon was 525000 M⁻¹ s⁻¹.

Source of the values: patent US20160297884A1 (Pfizer, published 2016).
